Columns and labels:
[1] = test system: ZFN pair 33488/33501 (engineered); assay: cell_activity; conditions: K562 cells
[2] = test system: ZFN SBS 33488 (engineered); assay: cell_activity; conditions: pair with 33501, K562 cells; 37.5% in human CD34+ cells

In the case of HBG1 paralog site, the activity ([1]; 0.000% in CD34+ cells) is reported as 0.006 % indels.

Substance HBG2 paralog site has an activity ([1]; 0.005% in CD34+ cells) of 0.013 % indels.

For HBBP1 paralog site, the activity ([1]; 0.005% in CD34+ cells) was 0.024 % indels.

“GGAGTCAGGTGCACCATGGTGTCTGTTT (double strand) [HBB left ZFN half-site]” was tested, and the activity [2] was 66.6 % indels.

HBE1 paralog site gave an activity ([1]; 0.000% in CD34+ cells) of 0 % indels.

Substance “CACCATGGTGCATCTGACTCCTGAGGAGAAGACTGCTGTCA (double strand) [HBD paralog site]” has an activity ([1]; off-target paralog, 28.6% in CD34+ cells) of 34 % indels.

From patent US20180187173
